Drawing on patent publication US20220172420A1 (Daiichi Sankyo, published 2022), this text covers Bmax and Kd for 3 molecules.

Sequences and labels used below:
B1: anti-HER3 human antibody U1-59 (antibody, human IgG1, kappa, V domains shown)
VH: QVQLQQWGAGLLKPSETLSLTCAVYGGSFSGYYWSWIRQPPGKGLEWIGEINHSGSTNYNPSLKSRVTISVETSKNQFSLKLSSVTAADTAVYYCARDKWTWYFDLWGRGTLVTVSS
VL: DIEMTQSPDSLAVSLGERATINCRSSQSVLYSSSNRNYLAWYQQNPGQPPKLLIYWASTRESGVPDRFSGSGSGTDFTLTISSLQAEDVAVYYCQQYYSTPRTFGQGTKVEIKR
notes: also called non-conjugated anti-HER3 antibody U1-59
B2: Antibody-drug conjugate (3) (antibody, human IgG1, kappa, V domains shown)
VH: QVQLQQWGAGLLKPSETLSLTCAVYGGSFSGYYWSWIRQPPGKGLEWIGEINHSGSTNYNPSLKSRVTISVETSKNQFSLKLSSVTAADTAVYYCARDKWTWYFDLWGRGTLVTVSS
VL: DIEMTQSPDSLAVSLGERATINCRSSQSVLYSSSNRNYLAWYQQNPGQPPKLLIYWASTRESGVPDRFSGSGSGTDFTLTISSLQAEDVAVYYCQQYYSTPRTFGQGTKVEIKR
modifications: may carry the same drug-linker on a cysteine (L chain bound to one drug molecule); position not stated; exatecan drug-linker -(Succinimid-3-yl-N)-CH2CH2CH2CH2CH2-C(=O)-GGFG-NH-CH2CH2CH2-C(=O)-(NH-DX), joined by thioether bonds to cysteines freed by reducing the hinge disulfide bonds; average 4.9 drug molecules per antibody (UV method); positions not given
notes: also called ADC (3)
B3: Antibody-drug conjugate (13) (antibody, human IgG1, kappa, V domains shown)
VH: QVQLQQWGAGLLKPSETLSLTCAVYGGSFSGYYWSWIRQPPGKGLEWIGEINHSGSTNYNPSLKSRVTISVETSKNQFSLKLSSVTAADTAVYYCARDKWTWYFDLWGRGTLVTVSS
VL: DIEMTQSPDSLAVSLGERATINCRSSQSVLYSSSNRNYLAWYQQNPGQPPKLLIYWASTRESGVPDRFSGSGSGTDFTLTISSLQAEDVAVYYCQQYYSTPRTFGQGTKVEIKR
modifications: may carry the same drug-linker on a cysteine (L chain bound to one drug molecule); position not stated; exatecan drug-linker -(Succinimid-3-yl-N)-CH2CH2CH2CH2CH2-C(=O)-GGFG-NH-CH2-O-CH2-C(=O)-(NH-DX), joined by thioether bonds to cysteines freed by reducing the hinge disulfide bonds; average 6.2 (procedure E) or 7.0 (procedure F) drug molecules per antibody; positions not given
notes: also called ADC (13)

The assay addresses T1, human epidermal growth factor receptor 3 (HER3) (human, UniProt P21860 20-1342).
T1 construct: whole, on cells; The target is the endogenous HER3 of the cell lines used; also called ErbB3; HER3 protein
Briefly: flow cytometry on HCC1569 cells, PE-labelled anti-human secondary antibody, one-site specific binding fit. As for the experimental part: A human breast cancer cell line HCC1569 (CRL-2330) from ATCC was cultured in an RPMI1640 medium (purchased from Invitrogen Corp., containing 10% […] (manufactured by Invitrogen Corp.) and 2 mM L-glutamine (manufactured by Invitrogen Corp.)). The cells were dissociated from the culture plate using ACCUTASE® SOLUTION (Millipore Corp., SCR005) or EDTA (5 mM, phosphate buffered saline (PBS, 137 mM sodium chloride, 2.7 mM potassium chloride, 1.47 mM potassium dihydrogen phosphate, and 10.5 mM disodium hydrogen phosphate)), and the number of living cells was measured by trypan blue treatment.
The cells of each group were reacted with a primary antibody dilution for 45 minutes on ice and then washed with a FACS buffer. Further, 100 uL of a FACS buffer or a reaction solution of a secondary antibody diluted 1/100 (phycoerythrin (PE)-coupled anti human antibody, Dianova GmbH #709-116-149) was added thereto. The cells were treated for 45 minutes on ice in the dark and then washed with a FACS buffer, and dead cells were excluded using a FACS buffer or a FACS buffer supplemented with 7-aminoactinomycin D (7AAD, Sigma-Aldrich Co. LLC, #A9400, 1.1 ug/mL).
The equilibrium binding affinity KD and the maximum binding strength Bmax were calculated using GraphPad Prism software.
The molecule B1 registered a Bmax of 31800 and a Kd of 1.67 nM.

B2 had a Bmax of 28900 and a Kd of 1.65 nM.

For the molecule B3, the Bmax was 28400 and the dissociation constant (Kd) turned out to be 2.76 nM.
